Substitutions are numbered along the chain they refer to.
T1: human IL-1α (human, UniProt P01583 113-271)
T1 construct: also called IL-1alpha; hIL-1α
T1 sequence (looked up): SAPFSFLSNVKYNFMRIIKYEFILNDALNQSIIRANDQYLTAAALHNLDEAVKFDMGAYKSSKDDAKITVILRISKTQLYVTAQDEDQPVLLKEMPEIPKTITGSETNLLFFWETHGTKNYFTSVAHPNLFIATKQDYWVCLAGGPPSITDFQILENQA

B1: ABT1-145 (other)
VL: DIQMTQSPSSLSASVGDRVTITCRASQDIDDGLAWYQQKPGKAPKLLIYRTSRLQSGVPSRFSGSGSGTDFTLTISSLQPEDFATYYCQPTWLPPCTFGQGTKVEIKR
notes: VK dAb
B2: ABT1-3 (other)
VL: DIQMTQSPSSLSASVGDRVTITCRASQSIWTELKWYQQKPGKAPKLLIYGASLLQSGVPSRFSGSGSGTDFTLTISSLQPEDFATYYCQQFAYFPFTFGQGTKVEIKR
B3: ABT1-10 (other)
VL: B2 VL with W30V, T31P, E32N, K34R, L53T, F91G, A92Y, Y93V, F94Y, F96G
B4: ABT1-9 (other)
VL: B2 VL with W30G, T31S, E32S, K34L, G50L, L53R, A92R, Y93S, F94T, F96N
B5: ABT1-123 (other)
VL: B2 VL with F94H, F96H
notes: VK dAb
B6: ABT1-130 (other)
VL: DIQMTQSPSSLSASVGDRVTITCRASQEIGLWLSWYQQKSGKAPKLLIYRHSSSQSGVPSRFSGSGSGTDFTLTISSLQPEDFATYYCQQTYKAPFTFGQGTKVEIKR
notes: VK dAb
B7: ABT1-20 (other)
VH: EVQLLETGGGLVQPGGSLRLSCAASGFTFTPYRMGWVRQAPGKGLEWVSHIGIWGANTYYADSVKGRFTISRDNSKNTLYLQMNSLRAEDTAVYYCAKHPRPFDYWGQGTLVTVSS
B8: ABT1-143 (other)
VL: DIQMTQSPSSLSASVGDRVTITCRASQRIDRHLSWYQQKPGKAPKLLIYKTSKLQSGVPSRFSGSGSGTDFTLTISSLQPEDFATYYCQQLHAKPFTFGQGTKVEIKR
notes: VK dAb
B9: ABT1-146 (other)
VL: DIQMTQSPSSLSASVGDRVTITCRASQNIKTFLHWYQQKPGKAPKLLIYRVSHLQSGVPSRFSGSGSGTDFTLTISSLQPEDFATYYCQQEYRIPLTFGQGTKVEIKR
notes: VK dAb
B10: ABT1-139 (other)
VH: EVQLLESGGGLVQPGGSLRLSCAASGFTFSDYTMIWVRQAPGKGLEWVSSISARGWGTYYADSVKGRFTISRDNSKNTLYLQMNSLRAEDTAVYYCAKGSPQLVLPFDYWGQGTLVTVSS
notes: VH dAb
B11: ABT1-159 (other)
VL: DIQMTQSPSSLSASVGDRVTITCRASSPIGMDLFWYQQKPGKAPRLLIDGVSGLQSGVPSRFSGSGSGTDFTLTISSLQPEDFATYYCSQHWPAPLTFGQGTKVEIKR
notes: VK dAb
B12: ABT1-18 (other)
VL: DIQMTQSPSSLSASVGDRVTITCRASQSIQRWLAWYQQKPGKAPKLLIYFASQLQSGVPSRFSGSGSGTDFTLTISSLQPEDFATYYCQQLLRLPKTFGQGTKVEIKR
B13: ABT1-141-1 (other)
VL: B12 VL with S28W, R31K, W32Q, F50S, A51G, Q53W, L91H, L94V, K96F, F98L
notes: VK dAb
B14: ABT1-141-9 (other)
VL: B12 VL with M4V, S28W, R31K, W32Q, F50S, A51S, Q53W, L91H, L94V, K96F
notes: VK dAb
B15: ABT1-141-18 (other)
VL: B12 VL with S28W, R31K, W32Q, A43V, F50S, A51S, Q53Y, L91H, L94V, K96F
notes: VK dAb
B16: ABT1-141-3 (other)
VL: B12 VL with S28W, R31K, W32Q, A43T, F50S, A51Q, Q53H, L91H, L94V, K96F
notes: VK dAb
B17: ABT1-142 (other)
VL: B12 VL with Q30N, R31D, W32V, K45R, F50S, Q53Y, L91Y, L92I, R93S, K96F
notes: VK dAb
B18: ABT1-141-8 (other)
VL: B12 VL with S28W, R31K, W32Q, Q38L, F50S, A51S, Q53W, L91H, L94V, K96F
notes: VK dAb
B19: ABT1-141-46 (other)
VL: B12 VL with S28W, R31K, W32Q, F50S, A51S, Q53H, L91H, L94V, K96M, E105V
notes: VK dAb
B20: ABT1-141-6 (other)
VL: B12 VL with S28W, R31K, W32Q, F50S, A51S, Q53Y, Q89L, L91H, L94V, K96F
notes: VK dAb
B21: ABT1-141-17 (other)
VL: B12 VL with S28W, R31K, W32Q, Q38L, F50S, A51S, Q53Y, L91H, L94V, K96F
notes: VK dAb
B22: ABT1-141-19 (other)
VL: B12 VL with S28W, R31K, W32Q, F50S, A51S, Q53W, P59R, L91H, L94V, K96F
notes: VK dAb
B23: ABT1-95-86 (other)
VL: DIQMTQSPSSLSASVGDRVTITCRASQPIVRNLRWYQQKPGKAPKLLIYSTSYLEPGVPSRFSGSGSGTDFTLTISSLQPEDFATYHCQQGYRWPVTFGQGTKVEIKR
B24: ABT1-95-A2 (other)
VL: B23 VL with A25I, S26L, I29P, V30G, T51K, Y53F
B25: ABT1-95-182 (other)
VL: B23 VL with Q27K, I29G, T51V, Q89L, V96P
B26: ABT1-221 (other)
VL: DIQMTQSPSSLSASVGDRVTITCRASQDIWPYLMWYQQKPGKAPKLLIYYSSMLQSGVPSRFSGSGSGTDFTLTISSLQPEDFATYYCQQFRRWPYTFGQGTKVEIKR
B27: ABT1-95-174 (other)
VL: B23 VL with Q27R, T51V, Q89R
B28: ABT1-155 (other)
VL: DIQMTQSPSSLSASVGDRVTITCRASSPIVANLRWYQQKPGKAPKLLIYAASSLQSGVPSRFSGSGSGTDFTLTISSLQPEDFATYYCTQGYVWPPTFGQGTKVEIKR
B29: ABT1-95-181 (other)
VL: B23 VL with Q27K, L33M, T51V, Q89L, V96P
B30: ABT1-95-177 (other)
VL: B23 VL with S50A, T51S, Q89R
B31: ABT1-141-7 (other)
VL: DIQMTQSPSSLSASVGDRITITCRASQWIQKQLAWYQLKPGKAPKLLIYSSSYLQSGVPSRFSGSGSGTDFTLTISSLQPEDFATYYCQQHLRVPFTFGQGTKVEIKR
notes: VK dAb
B32: ABT1-141-21 (other)
VL: B31 VL with I19V, L38Q, H91Q, L92M, R93S, V94S, F96R
notes: VK dAb
B33: ABT1-141-22 (other)
VL: B31 VL with I19V, L38Q, H91Q, L92M, R93A, V94P, F96R
notes: VK dAb
B34: ABT1-141-23 (other)
VL: B31 VL with I19V, L38Q, H91Q, L92M, R93Q, V94P, F96R
notes: VK dAb
B35: ABT1-141-16 (other)
VL: B31 VL with I19V, T20A, L38Q, Q90H
notes: VK dAb
B36: ABT1-11 (other)
VL: B28 VL with S27Q, P28S, V30P, A31Y, A50S, S53R, T89Q, V93S, P96M
B37: ABT1-132 (other)
VL: DIQMTQSPSSLSASVGDRVTITCRASQNIATALLWYQQKPGKAPRLLIYDSSQLQSGVPSRFSGSGSGTDFTLTISSLQPEDFATYYCQQMYWVPFTFGQGTKVEIKR
notes: VK dAb
B38: ABT1-141-14 (other)
VL: B31 VL with I19V, L38Q, K45R, H91N, R93S
notes: VK dAb
B39: ABT1-23 (other)
VH: EVQLLESGGGLVQPGGSLRLSCAASGFTFSSYPMEWVRQAPGKGLEWVSAIAWPGSMTYYADSVKGRFTISRDNSKNTLYLQMNSLRAEDTAVYYCAKTHRLFDYWGQGTLVTVSS
B40: ABT1-172 (other)
VL: DIQMTQSPSSLSASVGDRVTITCRASQRIRNGLEWYQQKPGKAPKLLIWGSSRLQSGVPSRFSGSGSGTDFTLTISSLQPEDFATYYCAQTVWGPATFGQGTKVEIKR
notes: VK dAb
B41: ABT1-22 (other)
VH: EVQLLESGGGLVQPGGSLRLSCAASGFTLKAYNMSWVRQAPGKGLEWVSLISSTGMFTDYADSVKGRFTISRDNSKNTLYLQMNSLRAEDTAVYYCAKWGVRRGLYFDYWGQGTLVTVSS
B42: ABT1-150 (other)
VL: DIQMTQSPSSLSASVGDRVTITCRASQSISSYLNWYQQKPGKAPKLLIGGVSGLQSGVPSRFSGSGSGTDFTLTISSLQPEDFATYYCMQWWRWPSTFGQGTKVEIKRAAAEQKLISEED
notes: VK dAb
B43: ABT1-151 (other)
VL: B42 VL with V51R, M89G, W92Y, W94H, S96A
notes: VK dAb
B44: ABT1-152 (other)
VL: B42 VL with V51R, S76G, W92Y, W94A
notes: VK dAb
B45: ABT1-144 (other)
VL: DIQMTQSPSSLSASVGDRVTITCRASQRIKKYLAWYQQKPGKAPRLLIYRSSQLQSGVPSRFSGSGSGTDFTLTISSLQPEDFATYYCQQSFKRPVTFGQGTKVEIKR
notes: VK dAb

Legend:
[1] = target: T1, human IL-1α; assay: Table 62 IC50; RBA presumed
[2] = target: T1, human IL-1α; assay: cell-based or functional assay

| Binder | IC50 [1] | ND50 [2] |
| --- | --- | --- |
| B1 | > 0.5 µM |  |
| B2 |  | 1000 nM |
| B3 |  | > 20000 nM |
| B4 |  | 4000 nM |
| B5 | > 0.5 µM |  |
| B6 | 0.3 µM |  |
| B7 |  | 1000 nM |
| B8 | > 0.5 µM |  |
| B9 | > 0.5 µM |  |
| B10 | 0.08 µM |  |
| B11 | 0.2 µM |  |
| B12 |  | > 10000 nM |
| B13 | > 0.1 µM |  |
| B14 | 0.01 µM |  |
| B15 | 0.08 µM |  |
| B16 | 0.08 µM |  |
| B17 | 0.2 µM |  |
| B18 | 0.01 µM |  |
| B19 | 0.003 µM |  |
| B20 | 0.02 µM |  |
| B21 | 0.03 µM |  |
| B22 | 0.05 µM |  |
| B23 |  | 0.2 nM |

| Binder | IC50 [1] | ND50 [2] |
| --- | --- | --- |
| B24 |  | 0.133 nM |
| B25 |  | 0.005 nM |
| B26 |  | 100 nM |
| B27 |  | 0.01 nM |
| B28 |  | 20 nM |
| B29 |  | 0.014 nM |
| B30 |  | 0.008 nM |
| B31 | 0.01 µM |  |
| B32 | 0.06 µM |  |
| B33 | 0.03 µM |  |
| B34 | 0.08 µM |  |
| B35 | 0.02 µM |  |
| B36 |  | > 20000 nM |
| B37 | 0.3 µM |  |
| B38 | 0.01 µM |  |
| B39 |  | 5000 nM |
| B40 | > 1 µM |  |
| B41 |  | 7000 nM |
| B42 | 0.15 µM |  |
| B43 | 0.2 µM |  |
| B44 | 0.3 µM |  |
| B45 | 0.1 µM |  |

From patent US20090291081A1 (AbbVie / Abbott, published 2009)
